Experimental data published in US7786083B2, “Metastin derivatives and use thereof” (Takeda Pharmaceutical Company Limited, priority 2006, dated 2010).
*1 amine or outer side, *2 acyl side, *3 side chain or, on linkers, in order; H or OH if unused. [ ]: non-standard residue; d: D form. Ser(Me) = O-methylserine, COC[C@H](N[*:1])C(=O)[*:2]; 2Nal = N[C@@H](Cc1ccc2ccccc2c1)C(=O)O; Arg(Me) = CNC(=N)NCCC[C@H](N)C(=O)O; Dap(CONH2) = NC(=O)NC[C@H](N)C(=O)O; Ala(cPr) = N[C@@H](CC1CC1)C(=O)O; Hyp = O=C(O)[C@@H]1C[C@@H](O)CN1; Aad = N[C@@H](CCCC(=O)O)C(=O)O; Cha = N[C@@H](CC1CCCCC1)C(=O)O; Cit = NC(=O)NCCC[C@H](N)C(=O)O; Nva = CCC[C@H](N)C(=O)O; Abu = CC[C@H](N)C(=O)O; Aib = CC(C)(N)C(=O)O

B1: des(1)-Ac-[D-Tyr2,Hyp3,Thr5,Cha6,Ser(Me)8,Arg(Me)9,Trp10]MS10 (peptide)
peptide: Ac-[dY][Hyp]NT[Cha]G[Ser(Me)][Arg(Me)]W-NH2
SMILES: CNC(=N)NCCC[C@H](NC(=O)[C@H](COC)NC(=O)CNC(=O)[C@H](CC1CCCCC1)NC(=O)[C@@H](NC(=O)[C@H](CC(N)=O)NC(=O)[C@@H]1C[C@@H](O)CN1C(=O)[C@@H](Cc1ccc(O)cc1)NC(C)=O)[C@@H](C)O)C(=O)N[C@@H](Cc1c[nH]c2ccccc12)C(N)=O
B2: des(1)-Ac-[D-Tyr2,Hyp3,Thr5,Nal(2)6,Arg(Me)9,Trp10]MS10 (peptide)
peptide: Ac-[dY][Hyp]NT[2Nal]GL[Arg(Me)]W-NH2
modifications: not fully specified (residue 7); printed as Ac-D-Tyr-Hyp-Asn-Thr-Nal(2)-Gly-Ala(cPr)-Arg(Me)-Trp-NH2
B3: des(1)-Ac-[D-Tyr2,Hyp3,Thr5,Cha6,Nva8,Arg(Me)9,Trp10]MS10 (peptide)
peptide: Ac-[dY][Hyp]NT[Cha]G[Nva][Arg(Me)]W-NH2
SMILES: CCC[C@H](NC(=O)CNC(=O)[C@H](CC1CCCCC1)NC(=O)[C@@H](NC(=O)[C@H](CC(N)=O)NC(=O)[C@@H]1C[C@@H](O)CN1C(=O)[C@@H](Cc1ccc(O)cc1)NC(C)=O)[C@@H](C)O)C(=O)N[C@@H](CCCNC(=N)NC)C(=O)N[C@@H](Cc1c[nH]c2ccccc12)C(N)=O
B4: des(1)-Ac-[D-Tyr2,Hyp3,Thr5,Cha6,Arg(Me)9,Trp10]MS10 (peptide)
peptide: Ac-[dY][Hyp]NT[Cha]GL[Arg(Me)]W-NH2
SMILES: CNC(=N)NCCC[C@H](NC(=O)[C@H](CC(C)C)NC(=O)CNC(=O)[C@H](CC1CCCCC1)NC(=O)[C@@H](NC(=O)[C@H](CC(N)=O)NC(=O)[C@@H]1C[C@@H](O)CN1C(=O)[C@@H](Cc1ccc(O)cc1)NC(C)=O)[C@@H](C)O)C(=O)N[C@@H](Cc1c[nH]c2ccccc12)C(N)=O

molecular target: metastin receptor (OT7T175) stably expressed on CHO/dhfr- cells (human or rat, not given); assay: cell-based or functional assay

| Binder | Specific Activity (EC50 of test compound based on EC50 of Metastin (45-54)); agonist activity, intracellular calcium ion level, FLIPR (ratio to Metastin (45-54)) |
| --- | --- |
| Ac-[dY]ENT[Cha]G[Ser(Me)][Arg(Me)]W-NH2 [des(1)-Ac-[D-Tyr2,Glu3,Thr5,Cha6,Ser(Me)8,Arg(Me)9,Trp10]MS10] | 0.5 |
| Ac-[dY]ENTFGL[Arg(Me)]W-NH2 (also: Gly6-Leu7 -CONH- replaced by (E) type alkene) [des(1)-Ac-[D-Tyr2,Glu3,Thr5,Gly7Ψ((E)CH═CH)Leu8,Arg(Me)9,Trp10]MS10] | 0.6 |
| Ac-[dY][Hyp]QT[Cha]GL[Arg(Me)]W-NH2 (also: Gly6-Leu7 -CONH- replaced by (E)-CH=CH-) [des(1)-Ac-[D-Tyr2,Hyp3,Gln4,Thr5,Cha6,Gly7Ψ((E)CH═CH)Leu8,Arg(Me)9,Trp10]MS10] | 1.4 |
| B1 | 0.5 |
| B2 | 1 |
| Ac-[dY][Hyp]NT[Cha]GLRW-NH2 (also: Gly6-Leu7 -CONH- replaced by (E) CH=CH) [des(1)-Ac-[D-Tyr2,Hyp3,Thr5,Cha6,Gly7Ψ((E)CH═CH)Leu8,Trp10]MS10] | 0.6 |
| Ac-[dY][Hyp]NTFGLRW-NH2 (also: Gly6-Leu7 -CONH- replaced by (E) CH=CH) [des(1)-Ac-[D-Tyr2,Hyp3,Thr5,Gly7Ψ((E)CH═CH)Leu8,Trp10]MS10] | 0.4 |
| B3 | 0.5 |
| Ac-[dY][Hyp]NTFG[Ala(cPr)][Arg(Me)]W-NH2 [des(1)-Ac-[D-Tyr2,Hyp3,Thr5,Ala(cPr)8,Arg(Me)9,Trp10]MS10] | 0.8 |
| B4 | 0.3 |
| Ac-[dY][Hyp]NTFG[Ser(Me)][Arg(Me)]W-NH2 [des(1)-Ac-[D-Tyr2,Hyp3,Thr5,Ser(Me)8,Arg(Me)9,Trp10]MS10] | 0.8 |
| Ac-[dY]DNT[Cha]G[Ala(cPr)][Arg(Me)]W-NH2 [des(1)-Ac-[D-Tyr2,Asp3,Thr5,Cha6,Ala(cPr)8,Arg(Me)9,Trp10]MS10] | 2.5 |
| Ac-[dY][Hyp]NTF[Aib]L[Arg(Me)]W-NH2 [des(1)-Ac-[D-Tyr2,Hyp3,Thr5,Aib7,Arg(Me)9,Trp10]MS10] | 1.5 |
| Ac-[dY][Hyp]NTFG[Nva][Arg(Me)]W-NH2 [des(1)-Ac-[D-Tyr2,Hyp3,Thr5,Nva8,Arg(Me)9,Trp10]MS10] | 0.7 |
| Ac-[dY][Hyp][Cit]T[Cha]GL[Arg(Me)]W-NH2 (also: Gly6-Leu7 -CONH- replaced by (E)-CH=CH-) [des(1)-Ac-[D-Tyr2,Hyp3,Cit4,Thr5,Cha6,Gly7Ψ((E)CH═CH)Leu8,Arg(Me)9,Trp10]MS10] | 0.9 |
| Ac-[dY]E[Dap(CONH2)]TFGL[Arg(Me)]W-NH2 (also: Gly6-Leu7 -CONH- replaced by (E) type alkene) [des(1)-Ac-[D-Tyr2,Glu3,Alb4,Thr5,Gly7Ψ((E)CH═CH)Leu8,Arg(Me)9,Trp10]MS10] | 0.5 |
| Ac-[dY]ENT[Cha]G[Nva][Arg(Me)]W-NH2 [des(1)-Ac-[D-Tyr2,Glu3,Thr5,Cha6,Nva8,Arg(Me)9,Trp10]MS10] | 0.4 |
| Ac-[dY][Aad]NT[Cha]G[Ala(cPr)][Arg(Me)]W-NH2 [des(1)-Ac-[D-Tyr2,Aad3,Thr5,Cha6,Ala(cPr)8,Arg(Me)9,Trp10]MS10] | 1.1 |
| Ac-[dY][Hyp][Dap(CONH2)]T[Cha]GLRW-NH2 (also: Gly6-Leu7 -CONH- replaced by (E)-CH=CH-) [des(1)-Ac-[D-Tyr2,Hyp3,Alb4,Thr5,Cha6,Gly7Ψ((E)CH═CH)Leu8,Trp10]MS10] | 0.5 |
| Ac-[dY][Hyp]ET[Cha]GL[Arg(Me)]W-NH2 (also: Gly6-Leu7 -CONH- replaced by (E)-CH=CH-) [des(1)-Ac-[D-Tyr2,Hyp3,Glu4,Thr5,Cha6,Gly7Ψ((E)CH═CH)Leu8,Arg(Me)9,Trp10]MS10] | 4.6 |
| Ac-[dY][Aib]NT[Cha]G[Ala(cPr)][Arg(Me)]W-NH2 [des(1)-Ac-[D-Tyr2,Aib3,Thr5,Cha6,Ala(cPr)8,Arg(Me)9,Trp10]MS10] | 0.6 |
| Ac-[dY][Hyp]NTF[Abu]L[Arg(Me)]W-NH2 [des(1)-Ac-[D-Tyr2,Hyp3,Thr5,Abu7,Arg(Me)9,Trp10]MS10] | 1 |
| Ac-[dY][Hyp]NTFGL[Arg(Me)]W-NH2 (also: Gly6-Leu7 -CONH- replaced by -CH2S-) [des(1)-Ac-[D-Tyr2,Hyp3,Thr5,Gly7Ψ(CH2S)Leu8,Arg(Me)9,Trp10]MS10] | 1.2 |
| Ac-[dY]KNT[Cha]G[Ala(cPr)][Arg(Me)]W-NH2 (also: classed as cyclised or stapled) [des(1)-Ac-[D-Tyr2,Lys3,Thr5,Cha6,Ala(cPr)8,Arg(Me)9,Trp10]MS10] | 0.7 |
